Assay [1] concerns the target GARPTS, soluble tail switch mutant of human GARP (glycoprotein A repetitions predominant) (human) (UniProt Q14392). The assay is described as follows: non-reducing SDS-PAGE and western blot of disulfide-linked complexes; GARPTS (300 ng) and a mixture of pro-TGFβ and latent TGFβ (600 ng) incubated overnight at RT in redox buffer (oxidized glutathione and 2 mM free cysteine), no pull-down; 10% gel, non-reducing; anti-Strep-tag or anti-His-tag antibodies. Background: Immunoblotting shows a protein as a band on a membrane.

Assay [2] has the same target.

Values joined by “and” are separate entries in the source; they are usually repeats but may differ in a detail not shown here. Equal values may be shown once. A value given as a limit tells only on which side of the number the result lay.

“recombinant pro-TGFβ (not cleaved by furin) (natural protein)”: the stoichiometry N (GARP per TGFβ) in assay [1] was 2 and 1. Turning to “recombinant latent TGFβ (furin-cleaved pro-TGFβ; LAP non-covalently bound to the mature cytokine) (complex)”, the stoichiometry N (GARP per TGFβ) in assay [1] was 2 and 1. The proliferation of Mv1Lu cells with a constant 60 ng/ml latent TGFβ pre-incubated with 10-40 ng/ml GARPTS; value at approximately 40 ng/ml (0.5 nM) GARPTS in assay [2] was less than 60%.

The values are drawn from publication PMC4824412.
